Experimental data from publication PMC2944331, “Similarity of Recombinant Human Perlecan Domain 1 by Alternative Expression Systems Bioactive Heterogenous Recombinant Human Perlecan D1” (BMC Biotechnology, 2010).

Tests used:
Assay in all cases: far-Western, overlay or dot blot; growth factor dot blot: 500 ng growth factor bound to nitrocellulose; 1 μg/ml rhPln.198, rhPln.247 or heparinase III digested rhPln.247 in PBS-Tween overnight at 4°C; detected with anti-perlecan domain 1 mAb CSI 001-71
Settings in all cases: both partners purified
[1] = target: T1, recombinant human perlecan domain 1, amino acids 1-198 (rhPln.198), enriched high Mr glycosylated pool (human, UniProt P98160 22-198, glycosaminoglycan chains, either heparan sulfate (about 1/3 of the pool) or chondroitin sulfate (about 2/3), at the three SGD linkage sites)
T1 construct: signal peptide in the construct; Heterogeneous proteoglycan pool with minor contaminants (bovine lumican, haemoglobin, BSA); also called rhPln.D1; Pln.D1

[2] = target: T2, recombinant human perlecan domain 1, amino acids 1-247 (rhPln.247), enriched high Mr glycosylated pool (human, UniProt P98160 22-247, glycosaminoglycan chains, either heparan sulfate (about 1/3 of the pool) or chondroitin sulfate (about 2/3), at the three SGD linkage sites)
T2 construct: signal peptide in the construct; Heterogeneous proteoglycan pool; also called rhPln.D1; Pln.D1

[3] = target: T3, rhPln.247 digested with heparinase III (human, UniProt P98160 22-247, heparan sulfate chains digested with heparinase III; chondroitin sulfate chains not digested)
T3 construct: signal peptide in the construct; Same polypeptide as m2; Only the glycosaminoglycan chains differ; also called heparinise III digested rhPln.247; rhPln.247 pre-digested with heparinase III; source: HEK 293 cells, enriched high Mr pool, then digested with heparinase III (1 mU/μg, overnight, 37°C)

Measured: binding result

T3 sequence (P98160 22-247): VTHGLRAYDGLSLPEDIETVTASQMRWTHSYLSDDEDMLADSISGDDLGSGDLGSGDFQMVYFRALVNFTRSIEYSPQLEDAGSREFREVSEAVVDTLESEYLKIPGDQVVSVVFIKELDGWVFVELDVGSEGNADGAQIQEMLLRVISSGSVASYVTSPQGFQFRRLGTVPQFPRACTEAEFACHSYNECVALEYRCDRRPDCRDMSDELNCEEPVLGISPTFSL
T2 sequence (P98160 22-247): as above
T1 sequence (P98160 22-198): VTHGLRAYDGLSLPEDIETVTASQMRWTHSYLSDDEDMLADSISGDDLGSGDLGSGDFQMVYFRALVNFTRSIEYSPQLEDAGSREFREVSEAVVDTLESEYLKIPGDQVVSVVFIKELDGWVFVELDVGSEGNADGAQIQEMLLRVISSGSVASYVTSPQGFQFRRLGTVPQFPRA

B1: recombinant human bone morphogenetic protein 7 (rhBMP-7) (ligand)
chain: STGSKQRSQNRSKTPKNQEALRMANVAENSSSDQRQACKKHELYVSFRDLGWQDWIIAPEGYAAYYCEGECAFPLNSYMNATNHAIVQTLVHFINPETVPKPCCAPTQLNAISVLYFDDSSNVILKKYRNMVVRACGCH
notes: human bone morphogenetic protein 7, recombinant
binds: all assays above

B2: recombinant human bone morphogenetic protein 6 (rhBMP-6) (ligand)
chain: SASSRRRQQSRNRSTQSQDVARVSSASDYNSSELKTACRKHELYVSFQDLGWQDWIIAPKGYAANYCDGECSFPLNAHMNATNHAIVQTLVHLMNPEYVPKPCCAPTKLNAISVLYFDDNSNVILKKYRNMVVRACGCH
notes: human bone morphogenetic protein 6, recombinant
binds: all assays above
